Assay results taken from US20240016917A1 (ACADEMIA SINICA, published 2024).

Molecular target: SARS-CoV-2 S protein S1 (SARS-CoV-2, UniProt P0DTC2 16-685)

B1: monoclonal antibody (mAb) m31A7 (antibody, V domains shown)
VH: EVQLQQSGPEMVKPGASVKISCKTSGYTFTEYTIYWVKQSHGKSLEWLGGINPNIGDTTYNQKFKGKATLTVDTSSSTAYMELRSLTSEDSAVYYCAREVYNYSFAYWGQGTLVTVSA
VL: DIVMSQSPSSLAVSVGEKVTMSCKSSQSLLYSSNQKNYLAWYQQKLGQTPKLLIYWASSRESGVPDRFTGSGSGTDFTLTISSVRAEDLAVYYCQQYYRYPLTFGVGTKLELKR
  EC50: 0.0235 nM
